Source: publication PMC5954120

Target: GST-Pmp23 (S. pneumoniae) (UniProt Q8DPY9)
Experiment: MST; 100 nM GST-Pmp23 labeled with NT-647, titrated with PBP2x (7 nM to 235 μM) or BSA (5 nM to 360 μM); 25 °C; 50 mM Tris-HCl, 150 mM NaCl, 10 mM MgCl2, 0.05% Tween-20; triplicates

UniProt Q8DPY9, sequence (Q8DPY9 whole entry): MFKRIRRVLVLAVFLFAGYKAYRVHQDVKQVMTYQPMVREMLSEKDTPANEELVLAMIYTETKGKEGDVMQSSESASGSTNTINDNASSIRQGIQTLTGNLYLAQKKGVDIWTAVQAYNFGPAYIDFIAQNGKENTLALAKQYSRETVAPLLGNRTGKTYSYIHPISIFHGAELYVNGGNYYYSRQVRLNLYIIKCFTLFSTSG

For “extracellular domain of PBP2x (domain or fragment)”, the Kd was 9 µM.
